Source: article PMC6403256, “ABHD5 blunts the sensitivity of colorectal cancer to fluorouracil via promoting autophagic uracil yield” (Nature Communications, 2019)
One block for each binder: values may come before it.

How the values were obtained:
Settings in all cases: both partners purified
[1] = molecular target: T1, PDIA5 on the HuProt human protein chip (human, UniProt Q14554 22-519); assay: peptide or protein array; human ABHD5 recombinant protein used to probe the HuProt human protein chip
T1 construct: PDIA5, human, as spotted on the HuProt human protein chip; source: spotted on the HuProt human protein chip
T1 sequence (looked up): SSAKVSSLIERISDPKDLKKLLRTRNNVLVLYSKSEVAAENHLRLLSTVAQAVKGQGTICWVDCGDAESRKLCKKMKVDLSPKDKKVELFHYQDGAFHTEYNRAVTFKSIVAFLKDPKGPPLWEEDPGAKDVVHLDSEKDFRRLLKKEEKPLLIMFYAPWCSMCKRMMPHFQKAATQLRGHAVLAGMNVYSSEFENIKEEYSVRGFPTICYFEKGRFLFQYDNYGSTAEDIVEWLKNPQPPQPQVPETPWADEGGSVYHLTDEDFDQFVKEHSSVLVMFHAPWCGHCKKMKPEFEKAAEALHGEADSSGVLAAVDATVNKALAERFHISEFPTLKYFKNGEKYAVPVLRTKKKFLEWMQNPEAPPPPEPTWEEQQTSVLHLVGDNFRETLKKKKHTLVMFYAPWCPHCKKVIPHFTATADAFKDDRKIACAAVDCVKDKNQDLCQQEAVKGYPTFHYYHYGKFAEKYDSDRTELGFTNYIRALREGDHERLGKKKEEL

[2] = molecular target: T2, His-PDIA5 (human, UniProt Q14554 22-519); assay: pull-down; competitive binding: 50 ug GST-RNASET2 mixed with 0, 50, 100, 200 ug GST-ABHD5, incubated with 50 ug immobilized His-PDIA5 at 4 C for 4 h; detected by blot
T2 construct: PDIA5, human, wild type; source: recombinant protein from Wuhan GeneCreate Biological Engineering Co., Ltd
T2 sequence (looked up): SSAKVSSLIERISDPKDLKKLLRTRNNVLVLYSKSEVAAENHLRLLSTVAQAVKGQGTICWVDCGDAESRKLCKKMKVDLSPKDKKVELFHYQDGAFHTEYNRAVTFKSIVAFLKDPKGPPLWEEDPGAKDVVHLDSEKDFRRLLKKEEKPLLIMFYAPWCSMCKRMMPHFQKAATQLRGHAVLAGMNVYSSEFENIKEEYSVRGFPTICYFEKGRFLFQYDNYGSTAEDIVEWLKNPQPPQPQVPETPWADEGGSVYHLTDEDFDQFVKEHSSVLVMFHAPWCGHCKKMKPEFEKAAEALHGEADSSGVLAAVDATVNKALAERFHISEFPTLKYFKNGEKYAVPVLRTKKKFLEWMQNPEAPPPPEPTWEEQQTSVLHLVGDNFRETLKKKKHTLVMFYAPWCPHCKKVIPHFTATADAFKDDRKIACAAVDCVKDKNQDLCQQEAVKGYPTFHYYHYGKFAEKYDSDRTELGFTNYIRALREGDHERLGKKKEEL

[3] = molecular target: T3, GST-tagged wild type PDIA5 (human, UniProt Q14554 22-519); assay: pull-down; Ni-NTA bead pull-down: 50 ug GST, GST-PDIA5 or mutant GST-PDIA5 with 50 ug immobilized His-ABHD5 or His-RNASET2; 20 mM Tris pH 8.0, 100 mM NaCl, 0.2% Triton X-100; 4 C, 4 h; eluates blotted with anti-GST
T3 construct: PDIA5, human, wild type; also called GST-PDIA5; wild type PDIA5 (W); source: expressed and purified; recombinant protein from Wuhan GeneCreate Biological Engineering Co., Ltd
T3 sequence (looked up): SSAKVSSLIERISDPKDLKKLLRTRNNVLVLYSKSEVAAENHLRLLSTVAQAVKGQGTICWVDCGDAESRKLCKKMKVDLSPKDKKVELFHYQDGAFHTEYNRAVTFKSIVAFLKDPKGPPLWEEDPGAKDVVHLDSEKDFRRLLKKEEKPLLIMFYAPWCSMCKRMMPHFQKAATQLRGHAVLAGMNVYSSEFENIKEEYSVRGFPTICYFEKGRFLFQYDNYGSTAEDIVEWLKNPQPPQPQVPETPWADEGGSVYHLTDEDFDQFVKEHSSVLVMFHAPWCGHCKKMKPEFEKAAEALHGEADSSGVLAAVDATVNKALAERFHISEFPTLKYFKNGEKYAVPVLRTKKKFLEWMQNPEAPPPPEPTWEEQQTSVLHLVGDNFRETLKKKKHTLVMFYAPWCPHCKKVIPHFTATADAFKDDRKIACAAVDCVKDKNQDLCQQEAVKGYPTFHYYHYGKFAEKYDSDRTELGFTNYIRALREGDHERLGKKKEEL

binding result [1]: binds
B1: human ABHD5 recombinant protein (probe on the HuProt chip) (natural protein, UniProt Q8WTS1 1-349, looked up)
chain: MAAEEEEVDSADTGERSGWLTGWLPTWCPTSISHLKEAEEKMLKCVPCTYKKEPVRISNGNKIWTLKFSHNISNKTPLVLLHGFGGGLGLWALNFGDLCTNRPVYAFDLLGFGRSSRPRFDSDAEEVENQFVESIEEWRCALGLDKMILLGHNLGGFLAAAYSLKYPSRVNHLILVEPWGFPERPDLADQDRPIPVWIRALGAALTPFNPLAGLRIAGPFGLSLVQRLRPDFKRKYSSMFEDDTVTEYIYHCNVQTPSGETAFKNMTIPYGWAKRPMLQRIGKMHPDIPVSVIFGARSCIDGNSGTSIQSLRPHSYVKTIAILGAGHYVYADQPEEFNQKVKEICDTVD
notes: ABHD5, human, recombinant protein used to probe the HuProt human protein chip; The methods list two recombinant ABHD5 proteins: His-ABHD5 (Wuhan GeneCreate) and ABHD5 (Human) recombinant protein H00051099-P01 (Novus)

binding result [2]: binds
B2: GST-ABHD5 (natural protein, human, UniProt Q8WTS1 1-349, looked up)
chain: MAAEEEEVDSADTGERSGWLTGWLPTWCPTSISHLKEAEEKMLKCVPCTYKKEPVRISNGNKIWTLKFSHNISNKTPLVLLHGFGGGLGLWALNFGDLCTNRPVYAFDLLGFGRSSRPRFDSDAEEVENQFVESIEEWRCALGLDKMILLGHNLGGFLAAAYSLKYPSRVNHLILVEPWGFPERPDLADQDRPIPVWIRALGAALTPFNPLAGLRIAGPFGLSLVQRLRPDFKRKYSSMFEDDTVTEYIYHCNVQTPSGETAFKNMTIPYGWAKRPMLQRIGKMHPDIPVSVIFGARSCIDGNSGTSIQSLRPHSYVKTIAILGAGHYVYADQPEEFNQKVKEICDTVD
notes: ABHD5, human

binding result [3]: binds
B3: His-tagged full-length ABHD5 (natural protein, human, UniProt Q8WTS1 1-349, looked up)
chain: MAAEEEEVDSADTGERSGWLTGWLPTWCPTSISHLKEAEEKMLKCVPCTYKKEPVRISNGNKIWTLKFSHNISNKTPLVLLHGFGGGLGLWALNFGDLCTNRPVYAFDLLGFGRSSRPRFDSDAEEVENQFVESIEEWRCALGLDKMILLGHNLGGFLAAAYSLKYPSRVNHLILVEPWGFPERPDLADQDRPIPVWIRALGAALTPFNPLAGLRIAGPFGLSLVQRLRPDFKRKYSSMFEDDTVTEYIYHCNVQTPSGETAFKNMTIPYGWAKRPMLQRIGKMHPDIPVSVIFGARSCIDGNSGTSIQSLRPHSYVKTIAILGAGHYVYADQPEEFNQKVKEICDTVD
notes: ABHD5, human, wild type, full length; also called His-ABHD5; source: recombinant protein from Wuhan GeneCreate Biological Engineering Co., Ltd
